The source of these data is a protein production outcome set (Wang et al. 2014).

The data set can be described thus: label from the status in PepcDB records.

Take “MRVGALDVGEARIGLAVGEEGVPLASGRGYLVRKTLEEDVEALLDFVRREGLGKLVVGLPLRTDLKESAQAGKVLPLVEALRARGVEVELWDERFTTKLAQERLKHAPKRLRRDKGKLDELAAVVLLEDYLARGI”: the protein production result is “not failed”.
For “MRVLITGATGGLGGAFARALKGHDLLLSGRRAGALAELAREVGARALPADLADELEAKALLEEAGPLDLLVHAVGKAGRASVREAGRDLVEEMLAAHLLTAAFVLKHARFQKGARAVFFGAYPRYVQVPGFAAYAAAKGALEAYLEAARKELLREGVHLVLVRLPAVATGLWAPLGGPPKGALSPEEAARKVLEGLFREPVPALLEV” the value was “not failed”; for “MRVLVIGATGHVGTYLVPRLVEAGHDVVTISRGAARPYTADRAWASVDQRQMDRVEMERKGDFGPAMRALNADIVIDMICFTLESAEQLVTALSGYVGHFLHTGTIWTHGYPVAVPTREEAPKSPFGDYGIQKAAIETYLLQQARLRGFPATIIHPGHIVGRGWAPLNPAGNFNLQVFSTLARGEALALPNFGLETVHHVHADDVAAMFMDAIANRNASLGESFHAVSEQALTLRGYAESMSRWFGRDPKLTFAPFDAWARGQAAEDAEATWEHIARSPNCSIAKARRLLGYGPRYTSLQAVQESVGWLLGQGRIKS”, “failed”.
For “MRVNGLTKGFFILIVFIVTLAFFDVLSPYYSAILWAAILAVIFNPVKNKIRTRLGERNGLAALMTIVIICLIVFTPLAIILSSLAYELNLVYSKLQHNDTQFPTVVASLFAHLPGWARSFLADHNLDSAQQIQQQLSDAALKGGQYLAGSAFLIGKGTFGFTVSFGIMLYLLFFLLKDGPYLVLLILESLPLSSYVKQHLFAKFAAVARATVKGTVAVALAQGALGGFAFWIAGLDGSILWGALMAFLSLIPAVGSAIIWVPAAIYLFATGQLWQGAFIVGFFVIVIGLVDNILRPLLVGKDTRMPDYLILIATLGGMEIYGINGFVIGPLIAALFIACWNLLSGREHAGNTDEIDEEFIEEAKNSRNE” the value was “failed”; for “MRVQANSRSMGVLEDKARARTFYKYLSKVYDRVNTFIWTEEMRAEALSMLDIDAEDRVLDVGCGTGFGTEGLLKHTEHVYGLDQSPHQLTKAWEKFGKHDPVAFHFGDAERLPFKPDSFDVVWSSGSIEYWPHPVQGLRELRRVAKPGSQVLVVGPDYPASTVFRKLADAIMLFYDEDEADRMFREAGYEEIQHRVLRKEPNSPPAIVTVARAPAADD”, “failed”.
Take “MRVRTERLTLAGLSVLARIPEAPKALLLALHGLQGSKEHILALLPGYAERGFLLLAFDAPRHGEREGPPPSSKSPRYVEEVYRVALGFKEEARRVAEEAERRFGLPLFLAGGSLGAFVAHLLLAEGFRPRGVLAFIGSGFPMKLPQGQVVEDPGVLALYQAPPATRGEAYGGVPLLHLHGSRDLIVPLARMEKTLEALRPHYPEGRLARFVEEGAGHTLTPLMARVGLAFLEHWLEAR”: the protein production result is reported as “not failed”.
With “MRVSVVIPARNEEAYLPSALEAVLAQTLPPFEVIVVDNASTDRTREVAEAFGARVVFCGRKGVAYARQAGLLAARGEWVAMTDADSLPTPRWLERLAHKAPGAVAVYGPLRFYGVSPLEAAFSEWGYRAFLNLMALLGRPNLAGANMMVLKEAALKVGGFPEVEAREDVLLGWRLKALGPVRYARDALVLTSARRLQGGWGRFLLRQARNLLGDPRGYFGEAGERER” the entry was “failed”; with “MRVTGVIIRIIRQFFRDKRSLAMMFGAPMLLLWLLSLVFTQKDYVPHIAVVDMPVQVVKVMKNQEASIYEYSKEKAMSELENQKVDAVIRLENGKMNIVLEGSDSSKNRAVLQILQKSTEKNDVSIMKPEVNYLHGSKDFTMFDGLGPVLIGFFTFFFVFILSGVSFVRERLSGTLERLLSTPIKRWEIVVGYIIGFGIFAFIQSIIIVSFSVYILDLYVAGSIWLTLLITCMLSLTALTLGTFLSAYANNEFQMIQFIPLVIVPQIFFSGLFPIESMNKWLQMLGKLFPLTYGADAMRQVMIRNQGFTEIALDLTVLLFFSVLFAVGNVFALKKHRKI”, “failed”.
For “MRVVHILLQVGILYGFYLVGSWIQKSFELIVPGSIIGMVLLLIALAIKAISPKWIEQGSMQLLLLMPMLFLPVTVGIMEYWHMFHGSGFWLLIIAFVSTILVFIISGWITQWLIAWKTKGIDKHDHL”, the protein production entry was “failed”.
With “MRVVIVGAGKVGYSLAQYLTQEDHEVIVIEENEERRAIVQNTLDVMTISGNGASPRVLLDPEVRKAELMIAVTDMDEVNMIACMAAKQVGIKRTIARVRNQEYAEKDKIKFNEALGIDLTINPEMVTALEIKRILLTPSALDVEDFAGDRVRMIEVKMPSDSKLINTSLTQLTLPSHTLVAGILRNGRMLIPHGSDMLLPNDCVFFVGEVSAIKKIEDHFTVRKSKVERVLIIGAGRIGRHLAMILEKSDIAVKIIDKDMERCQELAESLDEGLVLCGEGTDIELLTEEGVGEADAVLCLTDDDKLNLLIALLAKHLGAPRTFVRVGRPDYISLMEKVGVDVVLSPRILTAGVILRYVRRSDVVSVSLLEGAKAEAMEIIIPPLSQVTHKKLKDAKLPKNSLIGSIVRDEEIIIPNGETVLKPGDRAIIFALPDTVPTVVRLFENKLESK” the entry was “failed”; with “MRVYDMHVHLHEYSDREVEEILDADKSLVVVAVSDDLESAWRTLDLWHTFGGRVVPCLGFHPWNVREGRVWEAWEVLRLAYRYGVPCLGEVGLDRRFVDEYTWRVQNEVFDAFVQLAEDMGVMLNIHAPDAWKHVAHRIGWTSRARFMYHWYTGPATLPRALPEGRVWFSINSAIRVQEKSVRVAREIPLRSLVVESDGPYNYRGLRLSPLMVRETVKLVAEARGEDPGRLMEAISLNSERLLGLL”, “failed”.
With “MRWKGRRVSSNVEDRRGSGAKVGGISIIGLVVAFVAWKFFGVDPQQAYQATQQITAAQNPSSNAPQQLTADQKEASDFVGTILADTEDTWTPIFKQLGQTYVPPKLVLFNGIVQSGCGTAQSAMGPFYCPTDQKVYIDTSFFKDMREQMGISGEQNQTELSRQDQAGDFAQAYVVAHEVGHHIQNLLGISSQVQQAQAQGSRAQANQLSVRLELQADCFAGIWANHNQQRTQFLEAGDIEEAMDAAQKIGDDYLQKRSTGQVVPDSFTHGTSQQRMHWFEVGLKSGDLNQCDTF”, the protein production result was “failed”.
With “MRWVKAGELPMEAAYGATVSLPDRLIFIGGSNSSDRFSSVLSFSFDCMKDSGLICETLPPLPHAVDNMSATLLGDTLYVLGGNRNGIPSSSMFSLCLDNYSAGWTEVPFPGRPRVQPVCSSLLGKLYVFGGFTSGGDASVSTDGLCYHPESGQWQVVKAPLTTKGEPLTLTGGASVSYGDVLLICAGGVNRDIFEDAISARYQMVRESEYLLQPIEWYRFNDQLLAYNVRSGEWIRIGVPSPMLARAGSSLVVFGDILFYIGGELKPGVLEHHHHHH” the entry was “failed”; with “MRYGLRVEAITLWILGGLASLEAIPKEWNRELVIALAGPAVSILTGLACYAALFALPASAQVTLFVIGWLAVTNIFLAVFNMLPAFPMDGGRVLRALLARTRPYATATRIAARIGTGFAVLFAVVGVLSFSPLLLLLALFVYGAASSESRTVALAALLDGLSVDDVASPLDATIEANASVEDLVDRMFADRRTEFAVTRGGDVVGVVTVDDFRELSKAEREADTVADLMEADLPRFPAAMAAFDALVELDTARASAAFVDGPEGTRVVSRDDFSSAMEMRRLVDSPEPF”, “failed”.
With “MRYGRTVPVTEAAELPPAPEQAREVFGDRFADAVRYAELLAEAGVQRGLIGPREVPRLWERHLLNCAVLSEVVPEGVTVCDVGSGAGLPGIPLALVREDLKITLLEPLLRRTNFLTEVVELLGLDHVTVIRGRAEEVMGKIPPVHVVTARAVAPLDRLATWGIPLLRPYGEMLALKGDTAEEELKSAATALSKLGAVETSVLHVGEGVVDPLSTVVRVEVGESPGGVRFAAKRAKAARTGRTRRRR” the entry was “failed”.
With “MRYLFSLLFLLAYGSTVAQQPPMLPRDAAIEAKIEKLLEQMSLDEKIGQMVELEIGMITYRDPRYVVEKLARMSEQELADTLRRFGLDKQHNAAQLALTTPEDKQNKEKLMRLYWVSNDIQSKLPFRLDEAALDSVVGKYKVGSILNAPQTTAQTPAMWNQVVKTIQDVSIKHLGIPTVYGLDQMHGTTYSTGGTLFPGAINMAATFNRDLVYKMGEIVAYETRACNVPWIYGPCIDLGRMQAWSRQYESFGEDVFLSSEMGAAALRGMQGDNPNHIDAYHVAGCLKHYFAYGAPYNGLDRSPARLSYEELREKQFAPFLRGIREGALSIMTNSSNVNGVKGTVNREFITGWLKEGLGWDGMVVTDWGDIDGAVTSDRVVPTAKEAIRLAINAGVDMMMVPSQFTYNGLLKELVEEGGVSMERIDDAVRRILRLKHRVGLFEQPNTFAKDYPKFGSEEFAAYSRQAALESIVLLKNDSVDSQSRLLPIKQGTRLLVCGPNANSMRTLNGGWSYTWQGDGADREEFTGHFNTIYEALRNKFGSNHVTLVEGVSYDSKRWAMDHADNIGDAVAAAADNDYVIVCIGENTYAETRGNIADINLSTNQKNLVKALAATGKPIILVLNESRGRAISDIEPLAKAVVHTMLPGNYGGDALAELLAGNENFSGRLPYTYSAQPNAMVNYDYKASEVRETISGVYDYNAKTYEQWWFGAGMSYTTYTYSNLRADKNSFTKDDVLTFTVDVKNTGAMAGKETVMLYASDLYASLMPDNRRLRGFEKIVLAPDESKTVTFRIKASDLAFMGTGKKWTLEAGEFNIACGDQSVSIHCTEDYTWEEENIPDN” the entry was “failed”; with “MSADIEHIRQIMREADCLYTEAEVDAAIARVGAQINAELADRNPVVFCVMNGGLIFSGKLLTHLNFPLEASYLHATRYRNETTGGDLFWKAKPEVSFIDRDVLIIDDILDEGHTLGAIIDFCKHAGARAVHTAVLIDKDHDRKARPDLKADYVGLPCIDRYIFGFGMDYKGYWRNAAGIYAVKG”, “failed”.
Regarding “MSADTSSLDFHPLRADLYQELHSRPFQIIPPHARVTQIAVITTPEQRTRQFEHLQKLHRLLGEPWPEQEVSCYEQSFGKLRIRREVHMEFTSYTFINLADSDADPFAETGLSLLPDGWLAQLEGTVVGAFHVEVRSSSEDARSELAFMRKHFEGMRLVGSSPQEGAARVLGSFQLHSDNFGRFMVLNHHMSNSQLGRLIQRLMEIETYRLMSLLALPVAREITPSLNDMDQQLARITQSLADNESLDEQQILAELTNIAARIEAYRAHTTFRFSATRAYHRLVLTRLEELREDEVSGHLTITEFMTRRLTPAVKTCEAVNERLEDLSRRVDRASEMMRTRVELAIQSQNQQLLSSMDRRSRIQLMMQHTVEGFSVVAISYYLIGLLKLGLDALTGTGLTINEPLVTGLAIPVVMVLVFIGIRTIHHRFIRMARRQ”, the protein production result is reported as “failed”.
For “MSAECWAALLHDPMTLDMDAVLSDFVRSTGAEPGLARDLLEGKNWDLTAALSDYEQLRQVHTANLPHVFNEGRG” the value was “not failed”; for “MSAEEKNLIEILEEGHKVDVVKYIDYVSAPQAGAIATFSGTTRDMFEGKTVLELRYEAYVPMATRCLSSICTTARSTWDIHKIAVAHRLGPVPVGETSVLIAVSSVHRADGLDACKFLIDELKASVPIWKKEVYTNGEIWKENSEFMEKRLELAEKRDSIVKKTVVEEHRRRGCCGSKVRVEEDEEHKDITGDNKSSS”, “failed”; for “MSAFHIRAEQSRDISAIHDVTEAAFTGIEHSDGTEQDLVDKLRAAKALSLSLVAEADGEVIGHIAASEVLIGGGVQGWFGIGPVSVRPDKQQQGVGIALMGSALDQLRAEGAGGIVLLGDPGYYRRFGFEVVPGLVYPDAPAEFFMAVCLNAPAFPQGVVEYHSAFGG”, “failed”.
